Measured values published in paper PMC6272300, “Characterization of a (2R,3R)-2,3-Butanediol Dehydrogenase from Rhodococcus erythropolis WZ010” (Molecules, 2015).

Key:
Assay in all cases: purified protein
purified protein [1] = substrate: C[C@@H](O)[C@@H](C)O; details: oxidation, 0.64 mM NAD+, 50 mM CAPS pH 10.0, 45 °C (b26 prints the pH and temperature of the two directions swapped)
purified protein [2] = substrate: NC(=O)c1ccc[n+]([C@@H]2O[C@H](COP(=O)(O)OP(=O)(O)OC[C@H]3O[C@@H](n4cnc5c(N)ncnc54)[C@H](O)[C@@H]3O)[C@@H](O)[C@H]2O)c1; type: biochemical, Rhodococcus erythropolis; details: oxidation; 50 mM (2R,3R)-2,3-butanediol; 50 mM CAPS pH 10.0, 45 °C; pH 10.0; 45.0 °C; varied: cofactor
purified protein [3] = substrate: CC(=O)C(C)=O; type: biochemical, Rhodococcus erythropolis; details: reduction; 0.4 mM NADH; 50 mM PIPES pH 6.5, 55 °C (swapped); pH 6.5; 55.0 °C
purified protein [4] = substrate: NC(=O)C1=CN([C@@H]2O[C@H](COP(=O)(O)OP(=O)(O)OC[C@H]3O[C@@H](n4cnc5c(N)ncnc54)[C@H](O)[C@@H]3O)[C@@H](O)[C@H]2O)C=CC1; type: biochemical, Rhodococcus erythropolis; details: reduction; 50 mM diacetyl; 50 mM PIPES pH 6.5, 55 °C; pH 6.5; 55.0 °C; varied: cofactor

B1: ReBDH (Rhodococcus erythropolis PR4) (protein)
chain: MKAARFHGQKDIRIEEIPEPELRPGTVKLKVAWCGICGTDLHEYLEGPIFISAPGHPHPLSHENAPVTMGHEFSGTVEEVGEGVTDVEVGENVVVEPYFVCNECAPCKAGNYHLCTKMGFIGLAGGGGGLSEKVVVDRRWIHKIGNIPLDEAALIEPLSVAHHAVVRSGAESGNVAIVGGAGPIGLLVAAVLKGLGVTTIVTELSEARKAKALSSGVADYVIDPTTEDVKARVLELSGGIGADIGFECAGVNAVLDTMLDTVRPAGVVVNVSIWGKPATIDMQKLVLKEIDLRGTIAYVRDHEAVIKMVQDGVVDLAPFITGRIQLEELISEGFTTLIEHNDTAVKILVRS
notes: full length, 351 residues, deduced 37180 Da; N-terminal His-tag (pEASY-E1) kept, E. coli BL21(DE3), Ni-NTA; native 45 kDa monomer
Km (purified protein [1]): 580 ± 50 µM
Vmax (purified protein [1]): 6.65 µmol/min/mg
kcat (purified protein [1]): 4.28 s⁻¹
kcat/Km (purified protein [1]): 7380 M⁻¹ s⁻¹
Km (purified protein [2]): 1040 ± 110 µM
Vmax (purified protein [2]): 16 µmol/min/mg
kcat (purified protein [2]): 10.3 ± 0.69 s⁻¹
kcat/Km (purified protein [2]): 9880 ± 1780 M⁻¹ s⁻¹
Km (purified protein [3]): 100 ± 10 µM
Vmax (purified protein [3]): 9.49 µmol/min/mg
kcat (purified protein [3]): 6.11 ± 0.14 s⁻¹
kcat/Km (purified protein [3]): 61100 ± 7650 M⁻¹ s⁻¹
Km (purified protein [4]): 80 ± 10 µM
Vmax (purified protein [4]): 8.92 µmol/min/mg
kcat (purified protein [4]): 5.73 ± 0.08 s⁻¹
kcat/Km (purified protein [4]): 71600 ± 10100 M⁻¹ s⁻¹
